Experimental data as given in publication doi:10.1101/2023.10.23.563687.

Biological target: full-length BCL6 construct overexpressed in HEK293T cells (ternary complex nanoBRET) (UniProt P41182)

Sequence of full-length CDK9 construct overexpressed in HEK293T cells (ternary complex nanoBRET) (P50750 whole entry, one chain of several): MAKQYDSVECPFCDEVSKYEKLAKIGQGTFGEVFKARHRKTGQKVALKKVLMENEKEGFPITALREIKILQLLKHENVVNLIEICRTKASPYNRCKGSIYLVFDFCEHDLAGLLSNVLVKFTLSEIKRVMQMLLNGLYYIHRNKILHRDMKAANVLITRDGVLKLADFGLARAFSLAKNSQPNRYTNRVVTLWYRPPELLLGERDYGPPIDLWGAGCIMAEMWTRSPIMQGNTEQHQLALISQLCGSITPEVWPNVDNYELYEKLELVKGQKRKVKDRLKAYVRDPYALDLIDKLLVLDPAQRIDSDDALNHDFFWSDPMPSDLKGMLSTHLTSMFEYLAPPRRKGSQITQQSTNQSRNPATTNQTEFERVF

Work on “full-length CDK9 construct overexpressed in HEK293T cells (ternary complex nanoBRET) (from UniProt P50750 1-372) (enzyme)” yielded a cell killing of SUDHL5 DLBCL cells by CDK-TCIP1, 72-hour cell viability assay of 6.9 nM.
